Target: T1, recombinant CD3 epsilon (Homo sapiens (species ; human …, UniProt P07766)
T1 construct: recombinant CD3 epsilon (Sigma-Aldrich); No catalogue number is printed; source: bought: Sigma-Aldrich
Test: ELISA; indirect ELISA; 0.5 µg recombinant CD3 epsilon coated overnight at 4 °C; 500 µg/ml protein of total cell lysate, periplasmic or cytoplasmic fraction with the scFv, 37 °C 1 h; detected with HRP-conjugated anti-E tag, A405; signals of the negative protein and of BSA-coated wells subtracted
Conditions: one partner purified

T1 sequence (P07766 23-126): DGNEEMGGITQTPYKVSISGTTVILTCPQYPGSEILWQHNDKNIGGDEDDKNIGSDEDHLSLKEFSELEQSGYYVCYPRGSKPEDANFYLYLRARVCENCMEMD

B1: human scFv CD3 clone 18 (scFv, V domains shown)
VH: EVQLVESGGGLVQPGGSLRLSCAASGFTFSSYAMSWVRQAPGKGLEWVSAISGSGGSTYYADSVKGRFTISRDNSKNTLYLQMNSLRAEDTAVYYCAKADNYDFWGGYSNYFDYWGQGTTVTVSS
VL: EIVMTQSPATLSVSPGERATLSCTASQSVRNNLAWYQQKPGQPPRLLIYGASTRATGIPARFSGSRSGTEFTLTISSLQSEDFGVYYCQQYNNWPRTFGQGTKVEIK
notes: selected from a naive human scFv M13 phage library; About 28 kDa on Western blot; source: E. coli HB2151, IPTG-induced; total cell lysate, periplasmic fraction or cytoplasmic fraction
B1: binds.

Reference: PMC12148185, “Combining CD3/GD2 bispecific T cell engager with human Vγ9Vδ2 T cells facilitates neuroblastoma cell targeting and killing in vitro” (PLOS One, 2025)
